Assay results: the DeepSol protein solubility set

Assay: soluble on expression in E. coli; label from the status in PepcDB or PDB records

Sequence	soluble on expression in E. coli
RKYAFEDVFRVGREDVNEMADRILNSLSSYKPRVGCIAFSGGVDSSLLAALYDAPLVSVTASDAEEEWLKTAARMLGKEIEILKVGESAIREVVDTVRKTIETGDFLQLSIAVPVYLTMQFAKSLGFTEIIFGQGADELFGGYKRYEGLSEHELEDALVKDLKSIGESNLVRDCKLAYKNEIKLVTPYLCWDVIDAALKIPPEYKVRREGGKVVRKYILRKIAEKFLPEEIAWRDKKAIQYSTGIAKI	not soluble
MGSDKIHHHHHHMRRDTFAGRRTQQPACQIHRFARTDKCYRHQKNPAERRHFGLSQCPHRESIVFVYTKMYILLMDVDRVQVRAFRANIAEYLEQALQGQRIVIERHGGPVAALVPLADLYQITRKEKAMGHRIALNNVSGGEGKTFLTFHLAFALADLGFRVAVLDCDPQASLTKRFGLHDEEGAHQSGAETILPVFEVDDDPALPSPVTVEGIDVWPANRQLIDADTRIMTNMMRLGNLGEALDRIQDQYDFILLDTRPNVSPLLTASTAAARLFLVPIGAHKGLENLDELLRLVKLARKQDRSARIAFFIPNKVTSTRMGKNVLQSISAYTEVAPISPPVRQATIGPEAELFRTGITRHAPKSPLAGDIRTLANALVKATEQVEDAQ	not soluble
MGSDKIHHHHHHMNIIPYRVTLLEPLLATRIAGDPNSGVSYPYVPGSLVRGAAVAMYARNKGIVAVDAREEEARRLFFDGRTRYLNAYPADASGRRTLPTPRSLFHVEGEESPIYDFALEVIDAVNEETVQFVGAARDSQPFCRIDDSNIFFISPKRRINVHTQRDRVKGRATEVSGAVFQYDALEEGQTFAGWVLVDKDDDVELLSSLLRHIYRLGGSSNSGYGRVTVAVDAPQNIQVWREIPKQIVPIDAGETFVVTLLSDTLVRDPNTGQYTWDLRPALQQLLSVEIEHIHPIAGEEEQRSVWRLDEVGGFNRAWGLPLPQAQAIAGGSVFVFRARSPIPAQTIAGAEWDGIGERRAEGFGRLAFNWQTETELIRVDPPVVSLIDQLVPNLDGPARNIAQQMAMRMLRRELDAKLRKAINDIRPKHLSISNTQLSRLRIIAREALPNGDLARLQKYLDENIKTRRSVRDQFDRTRLGSEERLSQWLEERLSQPETVWDKIGAQTLSKRIGANVLVSTRDDTELAREYTIRLIDGVLARLAKERRREDGGRQ	not soluble
MGSDKIHHHHHHMNILLVDDDRFIIEALREKINWAKLHIDIVYVAYSLTQAQNIIREHPIDLMISDIEMPQGSGLELLSWIRNEKYDIKTIFLTNYADFNYAQKAIELQSFEYYLKPINFEKLEFIIQKAISKIENHNLNGKNDSLLQIEDNFWYDYLRKPQISRIDELENIASKQDFILKQHQYFFLAVLTINLNEEDYSVETPSWTSQLKRELQRISQPSYKLISLFKMESQVDQYVCLFRVDSSKRSDKLAYEIHSQISNNFSKYSNIIYKSCHKISDILFHTKELYTYNEQYVSYWNTITCVPHSFPTSFKTETLSITFLDTLSEYELREKINSLAYNSQIPTFTLQQILLDWTQQIGIYLDQNGISAHKLFQNSTHDFLFQRRFHSIESFQDYFDYYWSHAKKFATNIENQKNSIQRIVEYIDHHYYEDINRSILADVVYLSADHLARIFKKETGETLVKYITDKRINAAKSLLSQTNISISQVSCQVGYDNYSYFTKIFKQRTGLSPGDYRKTYQNKM	not soluble
MSLETWYDFDLPLDRTDPITIIHFNDVYNIESRCDGTGGVSRFVTALQSFQHKHPLILFSGDVLNPSVMSTYTRGRHMVPFLNLLKIHTACFGNHDFDFGIDELEYAVGSCSFPWLISNVFEKTGQTGLPLANGMKYRLFEWQGIRVGIIGLVEKEWLDTLACIDKDDVVYVDFVEAANCLCRILRQKECELIIALTHMRAPNDERLAKEAEDIDLILGGHDHDYYGLQRIGNIPVVKSGTDFRDFTVITIHPGQGSRLDASSLPTPPTQNKFGSTTFVSEEAARREAAVTAEMFKGPLLPTTVEGGEEVMPFFLGGSIVEWSRVRVDPERFEKNKHVELLVKKYEQNLKKQMKQILVDAACDLETRFSVIRTSESNVGNWLCDLMRRECRADIAILNSGTIRSDCLFPPGPFRFGDLAAMLPMTDTLCVIAVHGNVLLQALENAVSQLPKTEGRFLQVAGIRFAFNSSKPVGQRVVRDSVKVAQDACGRVHSGAATPVGEGKKSESDYLPLDENRVYSVATKTYLAQGRDGFHMLSKCPVLVEDELLPPLPTMVRSALSMAEMANGIKRPHSRITFKRLTEGHHHHHH	not soluble
MVAGGFGVGKTTLIGSVSEVRPLRMEEPITQASAGVDDLRGTPHKTTTTVAMDFGRIHMAGGRLALYLFGLPGQSRFQPLWEDLAEGALGCLVLADTRDLDASHDALGLLDGAGIPYAVAINTFPGSPSYPEAELREALALEPATPLTYCDARDRTSSLHALITLTEYLSEHRSAALLESRRLEHHHHHH	not soluble
MKAICVLSGGLDSAVTSMFAKSKNYDISTVTFNYGQMALNQEIKSAKKISDILNADHHVIDINFVKEFSKSGLNTGNIPEPENEDLDDFEKSEKTMKAVWVPARNMIMFSIASGFAEGIGAEKIFSGLNKEEGVTFPDNTPEFIERFNKSLEYGTLNKVKMVAPLYELNKPEIAKLGKELELKLDLEVLKYSYSCYKDNGKDYLHCGTCESCMRRKRAFKEAGITDPTKYLVE	not soluble
MSLGYDVIFVSGVAKARFRRRMRKLVLCITALLLSGCSREFIEKIYDVDYEPTNRFAKNLAELPGQFQKDTAALDALINSFSGNIEKRWGRRELKIAGKNNYVKYIDNYLSRSEVNFTEGRIIVETVSPIDPKAHLRNAIITTLLTPDDPAHVDLFSSKDIELKGQPFLYQQVLDQDGQPIQWSWRANRYADYLIANHLKVKQVDFKKAYYVEIPMVKDQIDIRGYKYASIVRKASRKYDIPEDLIYAIIKTESSFNPYAVSWANAYGLMQVVPKTAGRDVFKLVKNRSGEPSPEYLFNPENNIDTGTAYFYILKNRYLKEVRHPTSLEYSMISAYNGGTGGVLSTFSSDRQRAMRDLNALQPNQVYWALTKKHPNAEARRYLEKVTKFKKEFNAGEGHHHHHH	not soluble
MGLLKALLGFDRRDIETLARSNEENRRRIEALEAALARLEERISSISQALGRDARSTESLQGVEKEGGRETEYEGHNGTVEEGMLEDEGIIISHLEKGDATPSELIRDTGLSKNRVYGVLKRLVERGIVEKRRDGRRVVYSLRRVEAQADAPG	not soluble
SNAMGEAATKSDRQQNQTRLWLNILRLHGLVFGDLNRQLLDETGLSLAKFDAMAQLARNPDGLSMGKLSGALKVTNGNVSGLVNRLIKDGMVVKAMSADDRRSFSAKLTDAGLTTFKQASEAHNRILAELLRAVSDQDMVEASAALRGILESMQTGASLD	soluble
SESPEGAGPGEIVKDVKVPQAALNVSAHETGDMCRTPVAEEEEEVGIPIPAPGFLQVTERRRLHPLSRASCLRSPSWTKTRAEQNREKQPPSDPERQGTIVDTFLTVEEPKED	soluble
ELIRVGVVGTGYMGENHVRIYSEMEDVRLIGISDPNSSRVKELAARYETLPFSDHKKMFGKTNLDAISIAAPTTLHCPIVLDALEAGVDVLVEKPIADSVENATAMIESAEEMDRHLMVGHIERFNPAVLKLKEVVDSGVLGKIVSV	not soluble
MGSDKIHHHHHHMWPNPALDTITHQWAQVFTNGGGLASLTDMIEQDVVVVGGGMVGAALAAGLGRAGLSVTVLENHMPQAFEASQPLDVRVSALSVASEALLERLDAWAGILSRRAVPYLGLETWEIESCITRFHASQIGADHLGHIVENRVVQLALWDLLSTLDSVTVKAPVNVMGFERLVDEDAICVALDSGERIKAKLLVGADGANSQVRAFAHIGVTGWDYAQSAMLINIATACEQQDVTWQQFTPQGPRSLLPLPGKNASLVWYDDASTIARLAKLNPNELADSIRAHFPARLDRDFRVLDKGHFKLTRRHAQRYFDANLVLIGDAAHTINPLAGQGVNLGFKDVDVLLDEIVSAVKKGENWHTKSVLERYQQRRWRDNQLMMSTMDAFYASFSNDLLPVKLLRNAALRLANVDGPIKRQVLKYAMGLK	not soluble
MSLTTGAAVAFVDTLHDAAVRDLGWLLASPSMLTAVPGAPLARPWPDATGQAAVEAWLAALDAQPGPLHRALDGFRPTRLGRYAECLLEYFLTHGPSLRLVAANLPLRSNGRTLGEVDFLVDTPDGRRLHWEMAVKCYLCAPVRDGASLADFVGPNLVDRFDRKRSRLLDHQLRMGEHDGFARLGYGAPADAQMFIKGWLFHPYGAPVPPVSVEIAPDHPRGFWLTHGQWPAWAAAQRDGAAWSVLPRLAWLAPRRAVAGAGVEPEPLASALELPAVLATRQTPDMIAIHEKGGDGTWRETARGFVVPDDWPARAQAFAAQDHEGHHHHHH	soluble
MSLSLGISCFLVKKKSILNKDFESKEKLSSQTFEPEKVEKFLWDIYDKYGFDFTEYRKDSIIRRIKISMLRYCMTNFDEFSHLALTDQDVFEQLFLDFSINTTNFFRDPEVFMFLREKVLLFLDSYSHIRIWCVGCSNGKEPYSLAIILKELGMLHKVQIYATDINPYVIEEAKNGLYSVSTINTDIANYKKSGGSKNFTDYFEVNGNYMKVKDDFKDNILFFQHSVIEKGILNEFQMILCRNVMIYFDIPLQKKVLRHFYNSLDSGGFLVMGKSEGMLLNNGYEYFADYNEKYSVYRRKEGHHHHHH	not soluble
MGQKKYVELSKDIFIFSYLCGGINFTDIANLTQENIVNGRLHYIRQKTGKLIKIGIPQEAMQIIKKYTDESNGYLFPILNVKVHKTALQKQNRIHKIRGKVNDILKTLGKRLGIEANITTYVARHSFASVLKKSGVNIALISEALGHSDLATTQIYLDSFDNEQVDEAMKNLLEHHHHHH	soluble
MSLTQRIDFQTDPSRYRHWRVAYDGEIANLYMDVDEQGGLFPGYELKLNSYDLGVDIELADIVQRMRFEHPEVKVVVMQSGKDRVFCAGANIRMLGGASHAHKVNFCKFTNETRNTYEAAEADSGQKYIAAVKGACAGGGYELALACNYIMLTNDSSSSVALPEVPLLAVLPGTGGLTRVTDKRKVRRDLADVFCSVEEGVRGQRAVDWRLVDEIAPNSKFDEVVQERAREFASASVKPSGLTGIALTPLDRRFAEDGSVTYSTVEVVVEREAGRATLTISGPTDAAPDTVDALQAQGAEAWILRAARELDDAILHLRLNERRIGTLVIQTQGDGAAVAAHEALLLENRDHWLANEILQHWKRVLKRVDMTSRSLVAIVEHGSCFAGPLAELLWAVDRSYMMLEEGHHHHHH	not soluble
MSESTSSVGPGRPKDPAKREAILEAAKRLFLCNGYDGSSMEAIASEAGVSKLTVYSHFTDKETLFSEAVKAKCAEQLPALYFQLAEGAPLEKVLLNIARGFHRLINSHEAIALTRLMAAQAGQNPKLSELFFEAGPKQVIDEMERLLEQARRSGKLAFPDARHAAEHFFMLVKGCANYRLLIGCAEPLDEAEGERHVEEVVALFLRAFAAGG	not soluble
MVFFNRNKIMNKDSTQTWGLKRDITPCFGARLVQEGHRLHFLADRAGFTGSFSEVQTLQLDEAFPHFVAHLELMLLSCELNPRYAHCVTLYRNGLTGEADTLGSHGYVYIAILNRHGFNRHLRVILEHHHHHH	not soluble
MQYVKIKDAIVEQIDAGMLMPRQKLPAERKLAESFDTTRVTLREALSLLEAEGKIYREDRRGWFISPAPLRYDPTQTLNFTNMALAQNRQPKTELVSAKAVIANKQATRLLKLKPFSDVYRVDRVRYLDNRPVVYVTNYIRPELFPNLLDFDLSQSLTDLYREHYATQYQTIHYRISTSSLLGEMAQALRATSGTPAMVVERVNYNQKGELIDCDIEYWRHDAITIESIAELKR	not soluble
